± gives the uncertainty stated by the source.
Assay: protein stability index of a GFP-peptide fusion (yeast GPS) (PSI 1-4); higher = more stable; sorted into four equal gates, so the index is relative within each strain
Outline: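 Plasmids isolated from each sorting gate were PCR-amplified and Illumina-sequenced, and barcodes assigned the reads to strains. The gates, four of equal size, were set by GFP/Cherry fluorescence ratio on mid-log cultures in leucine-free medium. These cultures were yeast carrying a pooled library of tiled 17-residue yeast protein peptides fused downstream of GFP on a plasmid that also expresses Cherry. The protein stability index is the sum of every gate's read frequency times its gate number.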

Row | Sequence | protein stability index (doa10∆) | protein stability index (pdr5∆) | protein stability index (san1∆) | protein stability index (ubr1∆)
1 | NSSRFSDPMLQRTATLC [YCS4] | 2.81 ± 0.12 | 2.98 ± 0.093 | 3.21 ± 0.093 | 3.02 ± 0.078
2 | EFVHKYLGEGPRMVRDV [RPT3] | 3.39 ± 0.14 | 3.43 ± 0.084 | 3.14 ± 0.062 | 3.17 ± 0.077
3 | TATYNDNMSEEQWLRQF [SNF2] | 3.28 ± 0.092 | 3.33 ± 0.12 | 3.27 ± 0.1 | 3.5 ± 0.089
4 | APIPKQLLQRIPNIPPN [GAL11] | 2.69 ± 0.063 | 2.63 ± 0.066 | 2.6 ± 0.07 | 2.54 ± 0.049
5 | LQQKQQQRFQALQQQQQ [SWI1] | 1.35 ± 0.057 | 1.53 ± 0.047 | 1.37 ± 0.083 | 1.56 ± 0.063
6 | QRTAQDRVQQDSEDEDS [YML031W/NDC1] | 2.78 ± 0.089 | 2.56 ± 0.078 | 3.24 ± 0.081 | 2.91 ± 0.052
7 | NRLLPNLPEEERKQIHE [GRR1] | 1.26 ± 0.14 | 1.41 ± 0.079 | 1.71 ± 0.15 | 2.59 ± 0.13
8 | ANGIINVKEITEKLKIS [SMC3] | 2.81 ± 0.12 | 2.64 ± 0.099 | 2.75 ± 0.14 | 2.9 ± 0.06
9 | TGWHVDQAIVTETKRLV [DIB1] | 1.88 ± 0.074 | 2.24 ± 0.075 | 2.08 ± 0.25 | 1.9 ± 0.077
10 | LIARRDDESPRFVMPNQ [RRP6] | 3.27 ± 0.082 | 3.32 ± 0.07 | 3.21 ± 0.081 | 3.21 ± 0.061
11 | GNRYLEKRLNLRVEHIK [RPL21A] | 3.05 ± 0.077 | 2.96 ± 0.086 | 3.08 ± 0.075 | 3.05 ± 0.071
12 | VNIHHLLNEYRPHQSRE [MED7] | 2.81 ± 0.084 | 2.4 ± 0.16 | 1.81 ± 0.2 | 2.25 ± 0.1
13 | VLDKMHARARGPRAVLT [RET1] | 2.88 ± 0.11 | 3.22 ± 0.11 | 3.15 ± 0.067 | 3.09 ± 0.087
14 | SAAINNEDARAIFNNEF [RPN4] | – | 3.21 ± 0.23 | 3.04 ± 0.27 | –
15 | LKKDIESLRGILHVRAQ [SRP72] | 1.9 ± 0.1 | 2.39 ± 0.12 | 2.11 ± 0.22 | 2.07 ± 0.062
16 | VEFNRKVVIPNLLCYYN [RPN3] | – | 1.67 ± 0.22 | – | –
17 | GSEEKAFVPKKRKTNII [SRP54] | 3.12 ± 0.069 | 3.2 ± 0.077 | 2.88 ± 0.067 | 3.02 ± 0.06
18 | HKYVLTLQLYMVHREFL [RGR1] | 1.38 ± 0.039 | 1.47 ± 0.037 | 1.86 ± 0.055 | 2.1 ± 0.034
19 | NALTVGDFDKFDSLIKV [RPN9] | 2.14 ± 0.13 | 1.59 ± 0.11 | 1.3 ± 0.14 | 1.3 ± 0.11
20 | QLYKRDPVSGAILVPMT [YJR042W/NUP85] | 1.95 ± 0.18 | 1.75 ± 0.24 | 2.6 ± 0.099 | 2.67 ± 0.13
21 | LMEIHNILKVDSNSSSS [RGR1] | 2.58 ± 0.06 | 2.67 ± 0.06 | 2.63 ± 0.064 | 2.42 ± 0.049
22 | HLRYQPDGVVVHRDDPA [SNF6] | 2.91 ± 0.12 | 3.29 ± 0.1 | 2.94 ± 0.082 | 3.28 ± 0.08
23 | EEREAAASKVKLEEESK [RPC53] | 3.29 ± 0.081 | 3.43 ± 0.095 | 3.37 ± 0.069 | 3.25 ± 0.063
24 | AQYEVLANYLTSALSEL [QCR2] | 1.94 ± 0.05 | 2.18 ± 0.04 | 1.99 ± 0.067 | 1.68 ± 0.044
25 | SKRPQLGEIPNPMKKHK [SIR4] | 2.44 ± 0.075 | 2.53 ± 0.059 | 2.23 ± 0.089 | 2.69 ± 0.079
26 | KNFDMLNSMEKDRISHE [PCI8] | 2.33 ± 0.069 | 2.31 ± 0.076 | 2.35 ± 0.08 | 2.4 ± 0.043

Row | Sequence | protein stability index (doa10∆) | protein stability index (pdr5∆) | protein stability index (san1∆) | protein stability index (ubr1∆)
27 | VISTIENVLFYIGRVNK [COB] | 1.92 ± 0.069 | 1.89 ± 0.052 | 2.43 ± 0.058 | 2.62 ± 0.065
28 | FSSNERYFFWLQEKNSG [RPN13] | 1.27 ± 0.048 | 1.65 ± 0.072 | 2.18 ± 0.076 | 2.25 ± 0.055
29 | RSAWNNNNDNDANRNAN [GRR1] | 2.55 ± 0.041 | 2.65 ± 0.036 | 2.62 ± 0.034 | 2.7 ± 0.039
30 | LRLSNFFTIDHFIQKLH [SIR2] | 2.32 ± 0.085 | 2.2 ± 0.07 | 2.23 ± 0.074 | 2.05 ± 0.068
31 | YLLTQQQIWKSPNFKNY [SOH1] | 1.73 ± 0.047 | 1.62 ± 0.05 | 1.18 ± 0.081 | 2.19 ± 0.03
32 | PYAQKPLQGIFHNAVFN [QCR8] | 2.75 ± 0.057 | 2.52 ± 0.046 | 2.35 ± 0.045 | 2.57 ± 0.038
33 | TQKDSARVSPRNNVANK [YAR002W/NUP60] | 3.22 ± 0.1 | 3.52 ± 0.12 | 3.23 ± 0.096 | 3.02 ± 0.072
34 | AGTQSSKFSKQQAKGAF [RPL24A] | 3.2 ± 0.063 | 3.27 ± 0.062 | 3.27 ± 0.035 | 3.17 ± 0.049
35 | TPDPSELAAKEEPAKEE [FAS2] | 2.718 ± 0.024 | 2.821 ± 0.024 | 2.693 ± 0.026 | 2.684 ± 0.019
36 | RQLTSMEFSNLYKEFFN [NUT1] | 2.48 ± 0.079 | 2.59 ± 0.068 | 2.85 ± 0.089 | 2.25 ± 0.067
37 | IDLCHDFPHLTPKLQTQ [YCS4] | 2.6 ± 0.042 | 2.65 ± 0.038 | 2.63 ± 0.042 | 2.49 ± 0.035
38 | AMLINLILRDFLNNGEV [RPN3] | 2.67 ± 0.086 | 2.56 ± 0.076 | 2.59 ± 0.066 | 2.84 ± 0.076
39 | KALVLFVPVPALSAYHK [RPS7B] | 2.13 ± 0.063 | 2.51 ± 0.072 | 2.12 ± 0.12 | 2.4 ± 0.041
40 | HTSSSDGNNEIFTCQIM [RPN4] | 2.57 ± 0.094 | 2.89 ± 0.082 | 3.08 ± 0.064 | 2.86 ± 0.086
41 | EAMYKLQLASLQQKQRD [SMC3] | 2.71 ± 0.091 | 2.76 ± 0.078 | 2.52 ± 0.087 | 2.54 ± 0.063
42 | KRRKTHIHKHVKDEAFD [RET1] | 2.87 ± 0.11 | 3.23 ± 0.12 | 2.92 ± 0.095 | 3.1 ± 0.1
43 | CLQDALDAIDDFIQLKQ [SSN2] | 2.73 ± 0.081 | 2.6 ± 0.056 | 2.2 ± 0.063 | 2.92 ± 0.06
44 | QIQLAESELSLLEETQA [SMC4] | 2.69 ± 0.066 | 3.25 ± 0.063 | 2.71 ± 0.095 | 3.05 ± 0.052
45 | LEKDAADCQAELTKTKS [YIL149C/MLP2] | 2.94 ± 0.13 | 2.76 ± 0.26 | 2.75 ± 0.18 | 2.87 ± 0.1
46 | RLNKLNSNGIAMASLYL [SMD1] | 2.82 ± 0.075 | 2.95 ± 0.063 | 2.78 ± 0.065 | 2.67 ± 0.069
47 | APLAKVVFRDPYKYRLR [RPL2A] | 2.93 ± 0.098 | 3.16 ± 0.1 | 3.07 ± 0.06 | 3.13 ± 0.062
48 | FANYKLLLKKIIKDYVL [SRB4] | 2.41 ± 0.069 | 2.24 ± 0.068 | 1.97 ± 0.09 | 1.86 ± 0.035
49 | LLAKRLSERKAEKAEIR [RPS6A] | 3.35 ± 0.092 | 3.54 ± 0.11 | 3.18 ± 0.086 | 3.33 ± 0.084
50 | IAAERAARKAANKEKRA [RPL7B] | 3.27 ± 0.16 | 3.59 ± 0.21 | 3.28 ± 0.22 | 3.3 ± 0.17
51 | TVEALDFREKALYIAMM [RET1] | 2.73 ± 0.1 | 3.03 ± 0.096 | 3.29 ± 0.076 | 2.59 ± 0.082

From the supplement of paper PMC9732359
